Where only a bound is given, the exact number is not on record here.

Targets include U1A E19A:N15V (UniProt P09012 10-89, N15V;E19A); U1A L49A:E19A (UniProt P09012 10-89, E19A;L49A); U1A E19S (UniProt P09012 10-89, E19S); U1A M51A:E19A (UniProt P09012 10-89, E19A;M51A); U1A E19S:N15V (UniProt P09012 10-89, N15V;E19S); U1A L49A (UniProt P09012 10-89, L49A); U1A E19S:Y13Q (UniProt P09012 10-89, Y13Q;E19S); U1A E19F (UniProt P09012 10-89, E19F); U1A M51K (UniProt P09012 10-89, M51K); U1A E19K (UniProt P09012 10-89, E19K); U1A L49K (UniProt P09012 10-89, L49K); U1A E19A (UniProt P09012 10-89, E19A); U1A (UniProt P09012 10-89); U1A M51A (UniProt P09012 10-89, M51A); dK50dM51 E19S (UniProt P09012 10-89, E19S;del50-51); dK50dM51 E19K (UniProt P09012 10-89, E19K;del50-51).

Holding throughout (assay): fluorescence polarization

For orientation: Kd means the constant that tells how readily two partners part at equilibrium. On to AGCUUAUCCAUUGCACCGGAUAAGCU (structured_RNA) [U1hpII RNA], for which the dissociation constant (Kd) with U1A E19A:N15V is 48.4 ± 12.4 µM; with U1A L49A:E19A, 11.7 ± 2.1 µM; with U1A E19S, 11.4 ± 1.6 µM; with U1A M51A:E19A, 15.8 ± 2.7 µM; with U1A E19S:N15V, 15.1 ± 2 µM; in the data set with U1A L49A, less than 0.01 µM. The results for the equilibrium dissociation constant (Kd) with U1A E19S:Y13Q and with U1A E19F were 63.6 ± 8.9 µM and 36.1 ± 6.8 µM, respectively.
As to GGCAGATCTGAGCCTGGGAGCTCTCTGCC (structured_DNA) [TAR DNA], the dissociation constant Kd with U1A M51K turned out to be 54.3 ± 7.9 µM; with U1A E19S, 91.9 ± 33.4 µM; in the data set with U1A E19K, 12.3 ± 2 µM; with U1A L49K, 19.5 ± 2.9 µM; with U1A E19A, 100 ± 33.4 µM; with U1A L49A, 88.2 ± 22 µM. In addition, the Kd stood at 146 ± 46 µM in the data set with U1A; 179 ± 37.5 µM in the data set with U1A M51A; 59.9 ± 14.2 µM with dK50dM51 E19S; 29.8 ± 5.8 µM in the data set with dK50dM51 E19K; 156 ± 80 µM with U1A E19F.

For the origin of these results see article PMC4414246.
